Sequences and labels used below:
B1: Arl15-AL-Myc [human] / GST-Smad4 [not stated] (parent)
chain 1: MSDLRITEAFLYMDYLCFRALCCKGPPPARPEYDLVCIGLTGSGKTSLLSKLCSESPDNVVSTTGFSIKAVPFQNAILNVKELGGLDNIRKYWSRYYQGSQGVIFVLDSASSEDDLEAARNELHSALQHPQLCTLPFLILANHQDKPAARSVQEIKKYFELEPLARGKRWILQPCSLDDMDALKDSFSQLINLLEEKDHEAVRM
chain 2: MDNMSITNTPTSNDACLSIVHSLMCHRQGGESETFAKRAIESLVKKLKEKKDELDSLITAITTNGAHPSKCVTIQRTLDGRLQVAGRKGFPHVIYARLWRWPDLHKNELKHVKYCQYAFDLKCDSVCVNPYHYERVVSPGIDLSGLTLQSNAPSSMMVKDEYVHDFEGQPSLSTEGHSIQTIQHPPSNRASTETYSTPALLAPSESNATSTANFPNIPVASTSQPASILGGSHSEGLLQIASGPQPGQQQNGFTGQPATYHHNSTTTWTGSRTAPYTPNLPHHQNGHLQHHPPMPPHPGHYWPVHNELAFQPPISNHPAPEYWCSIAYFEMDVQVGETFKVPSSCPIVTVDGYVDPSGGDRFCLGQLSNVHRTEAIERARLHIGKGVQLECKGEGDVWVRCLSDHAVFVQSYYLDREAGRAPGDAVHKIYPSAYIKVFDLRQCHRQMQQQAATAQAAAAAQAAAVAGNIPGPGSVGGIAPAISLSAAAGIGVDDLRRLCILRMSFVKGWGPDYPRQSIKETPCWIEIHLHRALQLLDEVLHTMPIADPQPLD

The variants in this test derive from B1. Nature of the test: GST pull-down, immunoblot band quantification. To be noted: with GST-Smad4; HeLa cell lysates; bead-immobilized GST-Smad4; parent: 100. Background: A western blot detects proteins with antibodies after separation by electrophoresis.
Take chain 1 R95C: the percent of parent was 38. As for chain 1 Y96F, the percent of parent stood at 47.

In the case of chain 1 R90L, the percent of parent was found to be 22. As for chain 1 E82K, the percent of parent came to 95.
